Assay: soluble on expression in E. coli; label from the status in PepcDB or PDB records

Sequence	soluble on expression in E. coli
VRSTPPASAGRSTPPALAGHSTPPALAGHSTLCGRPVAGDRALIMAIVNRTPDSFYDKGATFSDAAARDAVHRAVADGADVIDVGGVKAGPGERVDVDTEITRLVPFIEWLRGAYPDQLISVDTWRAQVAKAACAAGADLINDTWGGVDPAMPEVAAEFGAGLVCAHTGGALPRTRPFRVSYGTTTRGVVDAVISQVTAAAERAVAAGVAREKVLIDPAHDFGKNTFHGLLLLRHVADLVMTGWPVLMALSNKDVVGETLGVDLTERLEGTLAATALAAAAGARMFRVHEVAATRRVLEMVASIQGVRPPTRTVRGLA	soluble
VSFNANEVTHVDTPQEALAASLNKFGEVNLEYMENLSETGRQELLTQLENRIFYNPMMKNYEIKDRFIAGNVVAKVEWIENYLKDYPDDDASKKSLEALQKAIPEPISFELLDFNLGERWIPVSVYEEFAGYLFEAKAHIHYTESIDEFSVSFEETNANITDRYYVKGEKRGYYGNDLLKHALHNTVPDITKTVQDEEGNDIKVRDAEAIQLADAKINEIRSAFTGWLNEQLPEFKQHLADMYNRKFNCYVRPDYDGSLQSF	soluble
VTDMNPDIEKDQTSDEVTVETTSVFRADFLSELDAPAQAGTESAVSGVEGLPPGSALLVVKRGPNAGSRFLLDQAITSAGRHPDSDIFLDDVTVSRRHAEFRLENNEFNVVDVGSLNGTYVNREPVDSAVLANGDEVQIGKFRLVFLTGPKQGEDDGSTGGP	soluble
VTKIVSHRGANRFAPENTFAAADLALQQGADYIELDVRESADGVLYVIHDETLDRTTNGTGPVGHMLSSEIDTLDAGGWFDDRFKGAIVPRLDAYLEHLRGRAGVYIELKYCDPAKVAALVRHLGMVRDTFYFSFSEEMRQGLQSIAPEFRRMMTLDIAKSPSLVGAVHHASIIEITPAQMRRPGIIEASRKAGLEIMVYYGGDDMAVHREIATSDVDYINLDRPDLFAAVRSGMAELLLASNSSSTC	soluble
VTMKEASAREIDEVVITGTGAQKKLTVTGAITNVDVDVLKANPSGSMANALAGNVPGILAMQTSGKPGSVSEFWIRGISTFGASNSALVLVDGFERSLDEINVEDVESFSVLKDASATAIYGSKGANGVVLITTKHGKAGK	not soluble
VTNWWSGDKRYQRFIERLLSVFEGRVLELPAESHGNVAVMAFQSSPKEQNIDKLKKRADKLSNAYGLDFHRMLAGLKASNPNNGKHFHL	not soluble
VTPVTTFPLVDAILAGRDRNLDGVILIAAQHLLQTTHAMLRSLFRVGLDPRNVAVIGKCYSTHPGVVDAMRADGIYVDDCSDAYAPHESFDTQYTRHVERFFAESWARLTAGRTARVVLLDDGGSLLAVAGAMLDASADVIGIEQTSAGYAKIVGCALGFPVINIARSSAKLLYESPIIAARVTQTAFERTAGIDSSAAILITGAGAIGTALADVLRPLHDRVDVYDTRSGCMTPIDLPNAIGGYDVIIGATGATSVPASMHELLRPGVLLMSASSSDREFDAVALRRRTTPNPDCHADLRVADGSVDATLLNSGFPVNFDGSPMCGDASMALTMALLAAAVLYASVAVADEMSSDHPHLGLIDQGDIVASFLNIDVPLQALSRLPLLSIDGYRRLQVRSGYTLFRQGERADHFFVIESGELEALVDGKVILRLGAGDHFGEACLLGGMRRIATVRACEPSVLWELDGKAFGDALHGDAAMREIAYGVARTRLMHAGASESLMV	not soluble
VWRTREAVVACIDADPHAEHVLRSAHRLAQQLDCEWHAITIEAPRVAPLPRAGRARLDQALALAETLGAHVETVAGTDMVDAATRYMRRHNITKAVVGRDAWRRRGLSGLL	not soluble
WGYECIGMFRSYQEINEYFDKYSITKYLGNTKENVHPGMLIYKDVRGQYDESTGTFGPADGIVDEQDYIKISHRASNPYGGTLNFGFSYKDFSISAQFGASWGAYSLVPTTMRKESYSEYSNVSAMWKDMFVYEDIYDANNIVTVAQNRNAKYPNIRYSSVNGAPSTFWKVSAATVQLRNMTVAYALPKEWLKIIGISSCRFNLTCQNVFNFLNPYPEGAWASWAGSYGYYPNLRKFTLGVNVSF	not soluble
WPALDDETLLARLELWLEPYLAGVTSVKGLQSVSVLQALKHYLGWELSQQLDEWLPTHHLLPTGNHKKIRYQLGMEPTLSVRMQEVFGEQSSPRVAKGTRAVVMELLSPAQRPLQVTRDLASFWAGAYKEVQKEMKGRYPKHVWPDDP	not soluble
YCKTIPMPDLAYSEISVIGKLIRALPEPCALHLANSSTVRYAQLFTVPPQVEICCNRGVNGIEGSLSTAIGYAAASSKLNFIIIGDLSFFYDMNALWNQNYGANIRILLLNNEGGEIFHTLPGMDKSSRSREFITAEHYTTAKGWAEERGFIYMKVTGEEELEEAMQPFTSPETRMQPMLLEVFTDKEKDTTLLREYYHGLKNKNE	not soluble
YDTAYGGFGRGMKFPMHHALLLLARASMAGDRRALNMLTGTLDHMLFSGVHDLVEGGLHRYSVTRDWRLPHYEKMLYDQAWIIQVLAEAYAASGDRLYLDFAVSTLEFAMSWLWTGRGFASSVDADTGEGEGAYYT	not soluble
YESIDLKAVLFDMDGVLFDSMPNHAESWHKIMKRFGFGLSREEAYMHEGRTGASTINIVSRRERGHDATEEEIKAIYQAKTEEFNKCPKAERMPGALEVLTKIKSEGLTPMVVTGSGQTSLLDRLNHNFPGIFQANLMVTAFDVKYGKPNPEPYLMALKKGGFKPNEALVIENAPLGVQAGVAAGIFTIAVNTGPLHDNVLLNEGANLLFHSMPDFNKNWETLQSALKQ	not soluble
YIGLVNSFAQKKKLSVNYEQCEPNSELPQRFICKCKIGQTMYGTGSGVTKQEAKQLAAKEAYQKLLKSPPKTAGT	soluble
YPDDLVIGNLSRRGFLKGVGATGVLLVAANWGWRDALAAEKKAFGADAMPHGWVDNPKIYVSIDRDGTVGIVCNRSEMGQGVRTSLAMVVADELEADWSRVKVIQAPGDEARYGNQDTDGSRSMRHWFEPMRRCGAAARQMLEQAAANQWKVPLGECRAEQNKVLHAPSGRSLSFGELAEAAAGLEVPARDKLLLKKPEQFRYIGKDVARAIDGADIVNGRAGFGFDARFDDMLYAVVARPPVYGGKLKRYDAAAALKVPGVVKVIEIEGRPIPSEFQPLGGVAVVAQNTWAAIKGREALVVEWDAGVNGGYDSVAYRKQLEEAARKPGKVVRDSGDAAALFAKGGDIVEAEYYLPHLAQAPMEPPVSTAWYKDGACEVWAPTQAPQVTRERIAERLKLPFDKVTVNVTLLGGGFGRKSKPDFVLEAAILAKAFPGRHLRVQWTREDDLHFSYFHTVSVERLQAVLGADGLPQAWLHRSVAPSITALFGPDSKHQGAFELGMGLTNLPFAIPNVRLENPEAPAHTRVGWFRSVSNIPHAFAIQSFVGELAAKAGQDPKDYLLKLLGPARRIDTAELGDSWNYGESPERYPLDVGRLRGVIEEAARQSGWGGELPRGRARGIAAHYSFVTYVAVVIEVEVKDDGALLVHKATIAADCGPQINPERIRSQLEGACVMGLGLAALGEISFKDGKVQQDNFHQYELARMPLAPKAVSVHLLKPDGDLPLGGVGEPGVPPIAPALCNAIFAATGKRIRELPI	not soluble
YQQDQVVKEDNIEAVGKKLHKYNTQFQEKSREYDRLYEEYTRTSQEIQMKRTAIEAFNETIKIFEEQCQTQERYSKEYIEKFKREGNEKEIQRIMHNYDKLKSRISEIIDSRRRLEEDLKKQAAEYREIDKRMNSIKPDLIQLRKTRDQYLMWLTQKGVRQKKLNEWLGN	soluble
YTEEELRVLLAESYKSGEIRKSELKYMNNIFTFDKRMAKEIMVPRNEMVSLSLDEDSISNLQETVKQTKYTRYPVVREDKDNVIGVINMKEVLFSMLTKDFSIKKHQIEPFVQPVIHVIETIPIYKLLLKMQKERTHMAILIDEYGGTSGLVTVEDIIEEIVGEIRDEFDADEVPHIRELGKDHYLLNAKLLISDVNSLLGTDLSE	soluble
YYPKIAEEVYLATLDNGMSLSIIKKKGFIEKAAFLSTNFGALDNRFYIDGKLQTYPAGIAHFLEHKLFEDDQGRDVTLDFVKLGADVNAFTTLDRTTYYFSTIDHFEESLELLLKFTSEFTSSEDTVNHEKRIIEQEINMYQDDPDYRVYLGCLQSLYPNTILGQDIAGSIDSIKKITTKDLKNNFDYFYRPENCHLVLIGNFDIEQIYRFVKETRSEFTISHKTVEK	not soluble

Source: the DeepSol protein solubility set
